Results on one molecule are retold here after patent publication US20130266574A1 (Regeneron, published 2013).

The target in the test is T1, mANGPTL4-His [R26-S410 of mANGPTL4 (SEQ ID NO: 478) fused with an AS linker to a C-terminal 6-histidine tag] (mouse, UniProt Q9Z1P8 26-410).
T1 construct: also called mANGPTL4(26-410)-His
T1 sequence: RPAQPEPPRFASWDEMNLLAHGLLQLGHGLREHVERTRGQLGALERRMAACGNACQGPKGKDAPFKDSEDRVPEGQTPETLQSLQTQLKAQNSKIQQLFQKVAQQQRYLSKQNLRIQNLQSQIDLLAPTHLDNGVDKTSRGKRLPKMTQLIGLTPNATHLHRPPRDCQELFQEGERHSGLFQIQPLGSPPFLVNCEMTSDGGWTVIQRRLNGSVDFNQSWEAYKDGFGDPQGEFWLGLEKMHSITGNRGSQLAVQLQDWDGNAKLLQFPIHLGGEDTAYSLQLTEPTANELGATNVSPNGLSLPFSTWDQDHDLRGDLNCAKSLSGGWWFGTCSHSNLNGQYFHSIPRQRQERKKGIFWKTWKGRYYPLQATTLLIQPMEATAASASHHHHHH
As to the kind of experiment: SPR (Biacore), antigen amine coupled. As to the method: Possible cross-reactivity of the anti-hANGPTL4 antibodies to related proteins, i.e., hANGPTL3, human angiopoietin-like protein 5 (hANGPTL5) and mouse ANGPTL4 (mANGPTL4), was tested for the selected antibodies, i.e., H1H268P and H1H284P, using the BIACORE™ system. Briefly, anti-hANGPTL4 antibodies as well as negative controls, i.e., two monoclonal antibodies (Control a and Control b) that are non-binders to any ANGPTL proteins, were injected at 3.125 μg/mL-50 μg/mL over amine coupled chip surfaces of hANGPTL3-His (R&D Systems, cat #3829-AN) at 5228 RU, hANGPTL4-His (R&D Systems, cat #4487-AN) at 6247 RU, hANGPTL5-His (Abnova Corp., cat #H00253935-P01) at 5265 RU, and mANGPTL4-His [R26-S410 of mANGPTL4 (SEQ ID NO: 478) fused with an AS linker to a C-terminal 6-histidine tag] at 5233 RU, respectively. A polyclonal antibody specific for hANGPTL3 (R&D System, cat #BAF3485) was also tested.
(In general: In SPR one partner is held on a chip, and binding of the other changes the refractive index at the surface.)

B1: H1H284P (antibody, V domains shown)
VH: QVQLVESGGGVVQPGRSLRLSCAASGFTFSSYGMHWVRQAPGKGLEWMAVISFDGGNKNNADSVKGRFTISRDNSKNTLYLQMNSLRAEDTAVYYCAKEGDRSGHPYFYYYGLDVWGQGTTVTVS
VL: DIQLTQSPSFLSASVGDRVTITCWASQGISSYLAWYQQKPGKAPKLLIYAASTLQSGVPSRFSGSGSETEFTLTISSLQPEDFATYYCQQLHSYPLTFGGGTKVEIK
notes: also called entire H1H284 mAb; Full mAb
In the case of B1, the binding result is recorded as “no binding (tested: 3.125 µg/mL-50 µg/mL)”.
